For experiment [1], the target named is histone H3 monomethylated on lysine 4 in Arabidopsis seedling chromatin (nucleosomes) (Arabidopsis, UniProt P59226 2-136). The experiment is described as follows: chromatin pull-down from Arabidopsis seedlings, quantified western blot. Background: A western blot detects proteins with antibodies after separation by electrophoresis.
Experiment [2] concerns the target histone H3 dimethylated on lysine 4 in Arabidopsis seedling chromatin (nucleosomes) (Arabidopsis, UniProt P59226 2-136). The description is as above.
Experiment [3] deals with histone H3 trimethylated on lysine 4 in Arabidopsis seedling chromatin (nucleosomes) (Arabidopsis, UniProt P59226 2-136). The description is as above.
In experiment [4] the target is T1, ASHH2 CW domain (13C/15N labelled, cleaved from GST with thrombin) (Arabidopsis thaliana, UniProt Q2LAE1 850-937, limits assumed, 13C and 15N isotope labelled; binds one Zn2+ through Cys868, 871, 893, 904).
T1 construct: domain: CW domain; Free CW domain used for NMR; The structure is deposited as PDB 2l7p (printed '217p')
T1 sequence (looked up): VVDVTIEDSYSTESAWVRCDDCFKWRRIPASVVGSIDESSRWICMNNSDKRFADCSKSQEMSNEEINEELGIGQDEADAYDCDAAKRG
The experiment is described as follows: NMR, 15N-1H HSQC chemical shift changes, peptide:CW about 1.1:1.

This is an account of results in patent US20140148355A1 (UNIVERSITY OF OSLO, published 2014).

Square brackets hold non-standard residues; d marks the D form. Ends that are not written are not given here. Lys(Me) = CNCCCC[C@H](N)C(=O)O

B1: GST-ASHH2-CW (other, Arabidopsis thaliana, UniProt Q2LAE1 850-937, looked up)
chain: T1 sequence (looked up)
notes: domain: CW domain; Expressed in bacteria from pSXG (Eco RI/Bam HI); also called GST-CWASHH2; GST-tagged ASHH2 CW protein; not shown: glutathione-S-transferase (GST) tag encoded by the pSXG vector
Turning to B1, the “bound chromatin relative to input chromatin” value in experiment [1] was 4.4 times of input material (2.5%); in experiment [2], 3.3 times of input material (2.5%); in experiment [3] it was 2.1 times of input material (2.5%).

B2: synthetic H3 peptide (residues 1-16) ARTK(me1)QTARKSTGGKAY (peptide)
peptide: ART[Lys(Me)]QTARKSTGGKAY
notes: Bought from CASLO and used for NMR at about 1.1:1 with the CW domain; also called histone H3K4me1 peptide (1-15); monomethylated H3K4 peptide
As to B2, in experiment [4], the binding result is “binds”.
